According to article PMC9104438, “Application of a Fluorescence Anisotropy-Based Assay to Quantify Transglutaminase 2 Activity in Cell Lysates” (International Journal of Molecular Sciences, 2022):

Legend:
Assay in all cases: FA-based assay, kinetic characterization of acyl donor DMC with R-I-Cad
Type in all cases: biochemical
hFXIIIa = biological target: T1, hFXIIIa (Homo sapiens, UniProt P00488); design: purchased Zedira T070; conditions: hFXIIIa 5 µg/mL, R-I-Cad 0.74 µM, mean (SEM)
T1 sequence (P00488 39-732 limits assumed): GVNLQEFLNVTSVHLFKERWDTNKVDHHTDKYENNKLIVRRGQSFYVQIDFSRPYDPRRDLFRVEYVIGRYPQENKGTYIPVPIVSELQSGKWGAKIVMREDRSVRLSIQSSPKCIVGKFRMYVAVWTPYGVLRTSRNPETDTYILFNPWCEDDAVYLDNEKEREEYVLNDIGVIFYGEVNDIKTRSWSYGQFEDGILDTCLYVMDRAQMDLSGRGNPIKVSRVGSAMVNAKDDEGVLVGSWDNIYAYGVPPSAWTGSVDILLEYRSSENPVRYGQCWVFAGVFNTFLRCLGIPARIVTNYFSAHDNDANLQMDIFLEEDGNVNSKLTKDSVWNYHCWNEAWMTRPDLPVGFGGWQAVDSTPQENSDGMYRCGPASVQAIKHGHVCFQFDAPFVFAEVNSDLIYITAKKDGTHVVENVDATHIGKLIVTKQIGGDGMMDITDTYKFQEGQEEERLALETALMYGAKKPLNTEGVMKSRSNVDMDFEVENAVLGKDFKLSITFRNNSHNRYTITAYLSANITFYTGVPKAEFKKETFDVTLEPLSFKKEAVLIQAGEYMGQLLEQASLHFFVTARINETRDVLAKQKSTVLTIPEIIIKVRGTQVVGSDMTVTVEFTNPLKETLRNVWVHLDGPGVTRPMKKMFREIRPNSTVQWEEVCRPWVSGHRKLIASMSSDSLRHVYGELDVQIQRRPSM
Description: (§1) For the kinetic characterization of DMC (Figure 1B) in the presence of a fixed concentration of R-I-Cad (0.74 µM), eight different concentrations of DMC (0.3–300 µM) were used (2–3 separate experiments, each performed in duplicate). The corresponding stock solutions of DMC and R-I-Cad were prepared in assay buffer A and DMSO, respectively. […] Values for Km, Ki and Vmax were calculated according to the equation of substrate inhibition (Equation (2)). (2) v=Vmax∗[S]/Km+[S]∗(1+[S]/Ki)

hTGase 3 = biological target: T2, hTGase 3 (Homo sapiens, UniProt Q08188); design: purchased Zedira T013; conditions: hTGase 3 5 µg/mL, R-I-Cad 0.74 µM, mean (SEM)
T2 sequence (Q08188 2-467 limits assumed): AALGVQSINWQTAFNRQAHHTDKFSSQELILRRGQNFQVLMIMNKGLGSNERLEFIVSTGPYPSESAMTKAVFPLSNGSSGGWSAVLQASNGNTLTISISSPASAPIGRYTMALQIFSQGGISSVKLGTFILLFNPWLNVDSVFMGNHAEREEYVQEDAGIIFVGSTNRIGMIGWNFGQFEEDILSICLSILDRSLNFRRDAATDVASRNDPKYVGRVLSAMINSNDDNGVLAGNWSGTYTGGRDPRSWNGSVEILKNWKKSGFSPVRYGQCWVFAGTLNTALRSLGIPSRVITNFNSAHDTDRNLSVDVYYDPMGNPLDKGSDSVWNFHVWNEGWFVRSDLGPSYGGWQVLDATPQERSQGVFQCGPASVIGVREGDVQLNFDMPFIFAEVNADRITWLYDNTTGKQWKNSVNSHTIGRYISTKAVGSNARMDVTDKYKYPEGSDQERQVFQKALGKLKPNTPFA
T2 sequence (Q08188 468-693 partner limits assumed): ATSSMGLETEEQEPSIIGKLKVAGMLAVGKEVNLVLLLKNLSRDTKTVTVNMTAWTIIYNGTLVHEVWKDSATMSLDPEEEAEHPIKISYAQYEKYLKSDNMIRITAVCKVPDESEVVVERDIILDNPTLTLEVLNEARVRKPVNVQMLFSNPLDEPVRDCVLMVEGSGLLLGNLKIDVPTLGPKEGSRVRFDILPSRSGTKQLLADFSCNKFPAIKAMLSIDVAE
Description: as §1

hTGase 1 = biological target: T3, hTGase 1 (Homo sapiens, UniProt P22735); design: purchased Zedira T009; conditions: hTGase 1 2 µg/mL, R-I-Cad 0.74 µM, pH 8.0, 30 °C, mean (SEM)
T3 sequence (P22735 1-817): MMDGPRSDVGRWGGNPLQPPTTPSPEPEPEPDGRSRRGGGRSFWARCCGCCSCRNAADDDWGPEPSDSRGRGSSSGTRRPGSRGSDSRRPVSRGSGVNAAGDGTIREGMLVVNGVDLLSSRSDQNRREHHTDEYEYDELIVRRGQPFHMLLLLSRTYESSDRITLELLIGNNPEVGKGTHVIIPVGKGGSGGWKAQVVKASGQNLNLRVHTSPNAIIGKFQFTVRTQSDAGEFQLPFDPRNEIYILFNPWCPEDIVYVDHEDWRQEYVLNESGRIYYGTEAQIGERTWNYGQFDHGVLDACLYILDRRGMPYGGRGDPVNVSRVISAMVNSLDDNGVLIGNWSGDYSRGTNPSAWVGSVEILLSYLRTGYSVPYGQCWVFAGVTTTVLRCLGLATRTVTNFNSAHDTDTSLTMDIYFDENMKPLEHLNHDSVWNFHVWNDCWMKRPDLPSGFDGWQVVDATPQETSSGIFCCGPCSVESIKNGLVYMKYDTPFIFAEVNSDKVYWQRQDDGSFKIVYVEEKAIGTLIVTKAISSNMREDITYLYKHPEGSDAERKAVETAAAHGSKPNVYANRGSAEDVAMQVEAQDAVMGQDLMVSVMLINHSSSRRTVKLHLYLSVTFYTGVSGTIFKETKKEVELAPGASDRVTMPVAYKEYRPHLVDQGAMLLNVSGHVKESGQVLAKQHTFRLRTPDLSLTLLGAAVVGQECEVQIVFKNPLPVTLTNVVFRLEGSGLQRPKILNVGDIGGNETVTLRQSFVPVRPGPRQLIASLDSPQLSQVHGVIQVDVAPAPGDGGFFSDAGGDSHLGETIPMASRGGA
Description: as §1

[1] = read-out: Ki (substrate inhibition)

N,N-dimethylated casein [DMC]
Km (hFXIIIa): 17.5 µM | Ki (hFXIIIa; [1]): 135 µM | Vmax (hFXIIIa; pH 8.0, 30 °C): 16.0 (1.1) mA mL s^−1 mg^−1 | Km (hTGase 3): 6.29 µM | Ki (hTGase 3; [1]): 571 µM | Vmax (hTGase 3; pH 8.0, 30 °C): 5.80 (0.09) mA mL s^−1 mg^−1 | Vmax (hTGase 1; DMC 0.3–300 µM, 5% DMSO, 500 µM DTT): 121 (13) mA mL s^−1 mg^−1 | Km (hTGase 1): 8.77 µM | Ki (hTGase 1; [1]): 270 µM
